Source: patent publication US10654927B2, “Signalling system” (UCL BUSINESS PLC, priority 2014, dated 2020)

Columns and labels:
[1] = tested on: SupT1 cells engineered to express CD33; experiment: Activation of BW5 T-cells expressing TetCAR challenged with SupT1 cells engineered to express CD33; type: cell-based; details: increasing concentrations of tetracycline
Description: FIG. 7—Function of the initial TetR construct in comparison with control. (a) TetCAR was expressed in BW5 T-cells. These T-cells were challenged with wild-type SupT1 cells or SupT1 cells engineered to express CD33 in the absence of tetracycline or in the presence of increasing concentrations of tetracycline. […] (b) Control TetCAR which lacks the TiP domain was transduced into BW5. Once again, these T-cells were challenged with wild-type SupT1 cells or SupT1 cells engineered to express CD33 in the absence or in the presence of increasing concentration of Tetracycline.
Signalling through the signalling component may be determined by a variety of methods known in the art. […] Functional readouts, such as clonal expansion of T cells, upregulation of activation markers on the cell surface, differentiation into effector cells and induction of cytotoxicity or cytokine secretion may also be utilised. As an illustration, in the present examples the inventors determined levels of interleukin-2 (IL-2) produced by T-cells expressing a receptor component and signalling component of the CAR system according to the present invention upon binding of antigen to the receptor component in the presence of varying concentrations of an agent. […]

streptavidin = streptavidin (Streptomyces avidinii, UniProt P22629); details: biotin mimicking peptide binding streptavidin; read-out: affinity; cited from earlier work
Chain of streptavidin (P22629 37-163): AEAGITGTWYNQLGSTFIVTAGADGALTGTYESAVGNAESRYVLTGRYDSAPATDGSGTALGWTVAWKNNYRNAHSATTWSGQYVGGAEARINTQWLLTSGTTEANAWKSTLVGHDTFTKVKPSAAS

| Compound | concentration of tetracycline at which activation is fully inhibited [1] [nM] | Kd (streptavidin) [nM] |
| --- | --- | --- |
| CN(C)[C@@H]1C(O)=C(C(N)=O)C(=O)[C@@]2(O)C(O)=C3C(=O)c4c(O)cccc4[C@@](C)(O)[C@H]3C[C@@H]12 [tetracycline] | 100 |  |
| Biotin mimicking peptide CHPQGPPC (SEQ ID NO: 9) (Biotin mimicking peptide, ccstreptag) |  | 230 |
| Biotin mimicking peptide DVEAWLDERVPLVET (SEQ ID NO: 4) (Biotin mimicking peptide, long nanotag) |  | 3.6 |
| Biotin mimicking peptide DVEAWLGAR (SEQ ID NO: 5) (Biotin mimicking peptide, short nanotag) |  | 17 |
| Biotin mimicking peptide WSHPQFEK (SEQ ID NO: 7) [streptag II] |  | 72000 |
